In the supplement of paper PMC9170038:

Tested on: MS2 coat protein
Experiment: apparent KD of MS2 coat protein; higher = weaker reporter binding
Details: Eterna round: R107
Outline: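 On-chip transcription from Illumina sequencing clusters produced the designed RNA switches. These were titrated with SNAP-549-labelled MS2 coat protein (twofold steps, 0.7 or 1.5 nM to 3 µM) in 100 mM Tris-HCl pH 7.5, 80 mM KCl, 4 mM MgCl2, with or without constant ligand. The apparent KD given is the per-design median of normalised cluster binding-curve fits.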

[1] = input ligand: theophylline 20 uM
[2] = input ligand: theophylline 2 mM
[3] = input ligand: tryptophan 2.4 mM

Sequence	apparent KD of MS2 coat protein (input ligand: arginine 13.2 mM)	apparent KD of MS2 coat protein [1]	apparent KD of MS2 coat protein [2]	apparent KD of MS2 coat protein (input ligand: none)	apparent KD of MS2 coat protein [3]
GGUUGAUGGUCGGCCGCCACUGUUGGUGCCAUGAGUUAAGUAUAGCACAUGAGGAUCACCCAUGUCAGGACCGGGACUCUACCCG [theeternabot_exclusion_MS2_Trp_B_16]	15.1 nM	19.6 nM	20.9 nM		
UCUCACAUGAGGAUCACCCAUGUGUGCGGUCGAGGACCGGUACGGCCGCCACUCGAAUCCUUCCGCGAGAAGAUUGUACGACGGC [theeternabot_sameState_MS2_Trp_A_38]	28.3 nM	74.4 nM	99.9 nM		
UGAGUUAGACAAAAGUCUAGCUCUGGUGAAGGAGCGUCCGAAAGGACAGGUAGGUCGCACCACAUGAGCAUCAGCCAUGUUCCUU [ArgAS 23 #OpenEnded #AlternativeMS2]	17.9 nM	26.9 nM	17.8 nM	17.3 nM	16.8 nM
AUUAAAGUUUAUAAGGAAAUUGAAACAGAAGGAGCGUGAGUAAUCACAGGUAGGUCGCUGGUAGUACAUGAGGAUCACCCAUGUU [JR_Nu_SSArginiA_Sub020]	22.2 nM	30.6 nM	24.2 nM	20.1 nM	21.3 nM
UUUGCACAUGAGGAUCACCCAUGUACAGAUACCAGCCUCAUCUACGGCCCUUGGCAGCUGAGACAAUGGUGACGUGACGGGCUUU [Erqugere]	13 nM	14.4 nM			13.2 nM
GGUCUCUGGAGCGAUACCAGCUUGAUCGUACUAGCCAGGUACAUGAGGAUCACCCAUGUAAGCCCUUGGCAGCGCUCCAGAGACC [#1 Exclusion - Theophylline B Attempt #9 (HarryS)]	8.2 nM	14.6 nM	22.3 nM	9.25 nM	10.5 nM
AAUAAUAUCCUCAUGUGAGUCGUACCGUAACGAGGACCGGUACGGCCGCCACUCGAACAUGAGGAUCACCCAUGUAGGUACGACA [M'-T'-T-MS2-T'' - Design 8]	42.1 nM	182 nM	238 nM		
UCACGACGCAUGGAUACCAGCGACAUGAGGAUCACCCAUGUAUGAGGAUCAGCCAUGUUAUGCCCUUGGCAGCCACGAAGGUCAU [KNKMULLIN]	14.2 nM	20.1 nM			15.8 nM
CCUAUGCAGUCGGCCGCCACUGAACAUGAGGAUCACCCAUGUAAUUAUAAAUAUGGUCCUAAAAUCAGGACCGGGACUGUAUAGG [Ex Tryptophan B 7]	122 nM	144 nM	296 nM	64.2 nM	237 nM
GUCUGUGUCUGAAGGAGCGACAUGAGGAUCACCCAUGUCUCCCGUUAUGGGAGUUCCUUAGGUCAGGUAGGUCGCAGACACAGAC [#1 Exclusion - Arginine B Attempt #27 (Inspired by Omei)]	110 nM	164 nM	187 nM	123 nM	107 nM
UACAUAUGCCGAAGGAGCGCGAGAUGCAAAGCAUCAAUCCUUACAUGAGGAUCACCCAUGUCGCAGGUAGGUCGCGGCAUAUGUU [ArgBX 2]	26.8 nM	44.3 nM	44.7 nM	33.6 nM	36.1 nM
GGAUGAAACUGAAGGAGCGAGAUCACAAGAAUGGGUCAAACAUGAGGAUCACCCAUGUAAUCUCAGGUAGGUCGCAGUGUCCCUU [Exclusion Arginine B GF 11]	40.1 nM	80.5 nM	55.1 nM	40.4 nM	46.2 nM
GCUAGUGGCAGAAGGAGCGGCAUACAUGCAAGUGACAUGAGGAUCACCCAUGUAAGGGAAUGCCAGGUAGGUCGCUGCCACUAGC [EAB NP+V+V2 #2 +-Same Structure]	36.2 nM	89.6 nM	89.2 nM	61.5 nM	64.2 nM
